“And” between values parts separate entries of the source, which are not always exact repeats. Equal values may be shown once.
Experiments:
[1] = molecular target: CCHFV nucleocapsid protein (N) (Crimean-Congo hemorrhagic fever virus strain 10200) (UniProt P89522); test: filter binding; conditions: 40 mM Tris-HCl pH 7.4, 80 mM NaCl (or 250 mM), 20 mM KCl, 1 mM DTT, room temperature, 30-45 min
[2] = molecular target: CCHFV nucleocapsid protein (N) (Crimean-Congo hemorrhagic fever virus strain 10200) (UniProt P89522); test: BLI; conditions: 40 mM Tris-HCl pH 7.4, 80 mM NaCl (or 250 mM), 20 mM KCl, 1 mM DTT, room temperature, 30-45 min
[3] = molecular target: CCHFV nucleocapsid protein (N) (Crimean-Congo hemorrhagic fever virus strain 10200) (UniProt P89522); test: tryptophan fluorescence; conditions: 40 mM Tris-HCl pH 7.4, 80 mM NaCl (or 250 mM), 20 mM KCl, 1 mM DTT, room temperature, 30-45 min
[4] = molecular target: CCHFV nucleocapsid protein (N) (Crimean-Congo hemorrhagic fever virus …, UniProt P89522 1-482); test: competition; vs labeled 5' NCR; 40 mM Tris-HCl pH 7.4, 80 mM NaCl (or 250 mM), 20 mM KCl, 1 mM DTT, room temperature, 30-45 min; conditions: protein: recombinant; tags: His (C-terminal per Methods; Results says N-terminal); biotin (BLI); none (fluorescence); single strand
CCHFV nucleocapsid protein (N), sequence (P89522 whole entry): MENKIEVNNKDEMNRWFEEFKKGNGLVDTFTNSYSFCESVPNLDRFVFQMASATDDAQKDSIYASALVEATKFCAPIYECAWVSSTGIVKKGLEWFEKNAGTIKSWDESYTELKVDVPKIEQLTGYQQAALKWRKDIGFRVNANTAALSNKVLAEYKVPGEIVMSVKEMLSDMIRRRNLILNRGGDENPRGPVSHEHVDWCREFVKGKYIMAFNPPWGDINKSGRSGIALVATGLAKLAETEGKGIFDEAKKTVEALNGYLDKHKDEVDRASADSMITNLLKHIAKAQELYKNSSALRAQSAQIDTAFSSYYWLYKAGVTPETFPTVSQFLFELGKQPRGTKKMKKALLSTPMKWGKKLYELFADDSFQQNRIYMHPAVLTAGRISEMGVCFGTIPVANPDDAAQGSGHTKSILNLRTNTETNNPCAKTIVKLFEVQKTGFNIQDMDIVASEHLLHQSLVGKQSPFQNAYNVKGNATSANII

CCHFV nucleocapsid protein (N) (Crimean-Congo hemorrhagic fever virus strain 10200), sequence (P89522 whole entry): as above

## 5' NCR 100 nt
[1]
  Kd: 131 nM

## 5' NCR (30 nt)
[2]
  Kd: 131 nM
[1]
  Kd: 121 nM and 147 nM
[3]
  Kd: 167 nM

## Wild type panhandle
[2]
  Kd: 41 nM
[1]
  Kd: 42 nM and 47 nM
[3]
  Kd: 48 nM

## 5' NCR 60 nt
[1]
  Kd: 131 nM

## Gluc RNA
[1]
  Kd: 55 nM and 43 nM

## CCHF S-segment vRNA
[1]
  Kd: 55 nM

## Nonviral ssRNA (30 nt)
[1]
  Kd: 121 nM

B1: 3' NCR (30 nt) (ssRNA)
RNA: UGGGCGUAAGCGGCACGUGUUUCUUUGAGA
[4]
  binding result: binds
